Test results as given in paper PMC5321526.

Biological target: MVV IN construct spanning the C-terminal domain (CTD), as crystallised (maedi-visna virus (MVV))
Assay: crystal structure

“MVV IN construct spanning the C-terminal domain (CTD), as crystallised (domain or fragment)” showed a stoichiometry N of 2.
